This is an account of results in PMC11592472.

The target in assay [1] is equine LH/CGR trileucine mutant eLH/CGR-ALL (equine).
Assay [2] deals with equine LH/CGR trileucine mutant eLH/CGR-LLA (equine).
For assay [3], the target named is equine LH/CGR trileucine mutant eLH/CGR-LAL (equine).
Assay [4] deals with equine lutropin/choriogonadotropin receptor, wild type (eLH/CGR-wt) (equine).
The target in assay [5] is equine LH/CGR trileucine mutant eLH/CGR-AAA (equine).

As to “recombinant equine chorionic gonadotropin (rec-eCG) (from UniProt P01220 25-120; P08751 21-169) (ligand)”, the EC50 of the cAMP response (HTRF) of transfected CHO-K1 cells stimulated with rec-eCG for 30 min at room temperature was found to be 4.6 ng/mL in assay [1]; 19.7 ng/mL in assay [2]; 14.3 ng/mL in assay [3]; 18.5 ng/mL in assay [4]; 35.2 ng/mL in assay [5].
